T1: APRIN (PDS5B) (UniProt Q9NTI5 1-1447)
T1 sequence: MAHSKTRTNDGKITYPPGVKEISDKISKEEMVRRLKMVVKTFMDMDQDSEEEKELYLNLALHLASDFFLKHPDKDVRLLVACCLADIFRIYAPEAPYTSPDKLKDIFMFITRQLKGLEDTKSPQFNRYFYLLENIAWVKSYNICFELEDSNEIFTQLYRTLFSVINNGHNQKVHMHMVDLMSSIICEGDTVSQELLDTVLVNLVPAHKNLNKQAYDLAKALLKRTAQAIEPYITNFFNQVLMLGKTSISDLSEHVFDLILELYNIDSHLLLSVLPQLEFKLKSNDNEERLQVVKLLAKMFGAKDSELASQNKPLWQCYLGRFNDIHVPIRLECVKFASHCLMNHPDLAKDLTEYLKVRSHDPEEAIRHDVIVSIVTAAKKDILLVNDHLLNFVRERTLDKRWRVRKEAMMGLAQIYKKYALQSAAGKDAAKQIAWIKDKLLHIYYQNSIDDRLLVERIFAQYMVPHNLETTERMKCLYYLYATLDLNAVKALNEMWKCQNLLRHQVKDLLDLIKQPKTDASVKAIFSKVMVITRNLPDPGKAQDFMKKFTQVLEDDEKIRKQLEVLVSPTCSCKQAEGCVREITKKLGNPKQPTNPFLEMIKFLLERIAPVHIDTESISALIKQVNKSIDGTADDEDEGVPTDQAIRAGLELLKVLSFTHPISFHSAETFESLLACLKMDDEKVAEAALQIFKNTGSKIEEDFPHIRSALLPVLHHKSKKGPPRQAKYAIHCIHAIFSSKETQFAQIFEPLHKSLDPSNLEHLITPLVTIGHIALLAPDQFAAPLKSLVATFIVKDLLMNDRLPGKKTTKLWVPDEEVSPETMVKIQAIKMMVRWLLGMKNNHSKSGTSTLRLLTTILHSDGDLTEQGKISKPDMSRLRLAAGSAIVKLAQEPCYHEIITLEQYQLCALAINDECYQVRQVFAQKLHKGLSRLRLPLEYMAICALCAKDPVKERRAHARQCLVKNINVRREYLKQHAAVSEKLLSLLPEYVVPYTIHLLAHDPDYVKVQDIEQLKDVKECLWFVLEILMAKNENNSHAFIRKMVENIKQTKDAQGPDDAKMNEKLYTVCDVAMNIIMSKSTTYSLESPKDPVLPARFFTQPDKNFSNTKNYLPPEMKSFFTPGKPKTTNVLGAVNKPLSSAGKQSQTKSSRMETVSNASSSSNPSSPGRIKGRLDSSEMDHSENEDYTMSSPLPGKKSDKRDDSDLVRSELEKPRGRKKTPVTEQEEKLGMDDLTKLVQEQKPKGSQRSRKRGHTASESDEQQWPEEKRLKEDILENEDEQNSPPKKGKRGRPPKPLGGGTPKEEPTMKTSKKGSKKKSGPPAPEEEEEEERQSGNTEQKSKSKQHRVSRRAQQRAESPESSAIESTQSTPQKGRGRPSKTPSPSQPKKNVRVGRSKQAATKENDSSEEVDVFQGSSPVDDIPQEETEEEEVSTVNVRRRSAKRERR


Target: T1, APRIN (PDS5B)
Assay: EMSA

Binder	binding result
ssDNA (JYM925) (ssDNA) DNA: GGGTGAACCTGCAGGTGGGCAAAGATGTCCTAGCAATGTAATCGTCAAGCTTTATGCCGT	binds
Splayed arms (JYM925/JYM926) (structured_DNA) DNA 1: GGGTGAACCTGCAGGTGGGCAAAGATGTCCTAGCAATGTAATCGTCAAGCTTTATGCCGT DNA 2: ACGCTGCCGAATTCTACCAGTGCCAGCGACGGACATCTTTGCCCACCTGCAGGTTCACCC	binds
Holliday junction (JYM925/926/927/928) (structured_DNA) DNA 1: GGGTGAACCTGCAGGTGGGCAAAGATGTCCTAGCAATGTAATCGTCAAGCTTTATGCCGT DNA 2: ACGCTGCCGAATTCTACCAGTGCCAGCGACGGACATCTTTGCCCACCTGCAGGTTCACCC DNA 3: ACGGCATAAAGCTTGACGATTACATTGCTACATGGAGCTGTCTAGAGGATCCGACTATCG DNA 4: CGATAGTCGGATCCTCTAGACAGCTCCATGGTCGCTGGCACTGGTAGAATTCGGCAGCGT	binds
dsDNA (JYM925/JYM945) (dsDNA) DNA 1: GGGTGAACCTGCAGGTGGGCAAAGATGTCCTAGCAATGTAATCGTCAAGCTTTATGCCGT DNA 2: ACGGCATAAAGCTTGACGATTACATTGCTAGGACATCTTTGCCCACCTGCAGGTTCACCC	no binding
